Results from patent US6641818.

Legend:
HveC(346t) (human) [1] = biological target: HveC(346t) (human) (UniProt Q15223); test: ELISA, HveCt on the plate
HveC(346t) (human) [2] = biological target: HveC(346t) (human) (UniProt Q15223); test: gel filtration at various molar ratios
HveC(346t) (human) [3] = biological target: HveC(346t) (human) (UniProt Q15223); test: silver-stained SDS-PAGE of the complex fraction
HveA(200t) (human) [4] = biological target: HveA(200t) (human) (UniProt Q92956); test: ELISA, HveAt on the plate
UniProt Q92956, sequence (Q92956 39-202): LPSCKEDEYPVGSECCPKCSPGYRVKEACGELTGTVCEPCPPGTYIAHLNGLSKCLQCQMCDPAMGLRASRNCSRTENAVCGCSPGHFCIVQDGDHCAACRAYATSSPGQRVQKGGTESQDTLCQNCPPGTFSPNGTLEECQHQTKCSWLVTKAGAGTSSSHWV

HveC(346t) (human) [5] = biological target: HveC(346t) (human) (UniProt Q15223); test: gel filtration
HveC(346t) (human) [6] = biological target: HveC(346t) (human) (UniProt Q15223); test: SPR (Biacore X), HveC(346t) amine-coupled to the chip, gD in flow, 1:1 Langmuir global fit
HveA(200t) (human) [7] = biological target: HveA(200t) (human) (UniProt Q92956); test: ELISA, apparent affinity from half-maximal binding, HveAt on the plate
HveC(143t) (human) [8] = biological target: HveC(143t) (human) (UniProt Q15223); test: SPR (Biacore X), HveC(143t) amine-coupled to the chip, gD in flow, 1:1 Langmuir global fit
HveC(143t) (human) [9] = biological target: HveC(143t) (human) (UniProt Q15223); test: SPR (Biacore X), HveC(143t) amine-coupled to the chip, gD in flow, KD = koff/kon
HveC(346t) (human) [10] = biological target: HveC(346t) (human) (UniProt Q15223); test: SPR (Biacore X), HveC(346t) amine-coupled to the chip, gD in flow, KD = koff/kon
HveC(346t) (human) [11] = biological target: HveC(346t) (human) (UniProt Q15223); test: ELISA, apparent affinity from half-maximal binding, HveCt on the plate
HveC(346t) (human) [12] = biological target: HveC(346t) (human) (UniProt Q15223); test: SPR (Biacore X)
HveC(346t) (human) [13] = biological target: HveC(346t) (human) (UniProt Q15223); test: silver-stained gel analysis of the complex formed in excess gD(285t)
HveC(143t) (human) [14] = biological target: HveC(143t) (human) (UniProt Q15223); test: silver-stained PAGE of the complex fraction against standards
HveC(143t) (human) [15] = biological target: HveC(143t) (human) (UniProt Q15223); test: gel filtration, from the size of the complex
HveC(245t) (human) = HveC(245t) (human) (UniProt Q15223); test: gel filtration, from the size of the complex
HveC(346t) (human) [16] = biological target: HveC(346t) (human) (UniProt Q15223); test: gel filtration, from the size of the complex

| Substance | koff (HveC(346t) (human) [6]) | kon (HveC(346t) (human) [6]) | koff (HveC(143t) (human) [8]) | kon (HveC(143t) (human) [8]) | Kd (HveC(143t) (human) [9]) | Kd (HveC(346t) (human) [10]) | also measured |
| --- | --- | --- | --- | --- | --- | --- | --- |
| gD-1(A290-299t) (ligand) | – | – | – | – | – | – | fold increase in binding compared to wild type gD(306t) (HveC(346t) (human) [1]): 100 fold; stoichiometry (gD:HveCt) (HveC(346t) (human) [2]): 2 gD per HveCt; gD:HveCt ratio in the complex (HveC(346t) (human) [3]): 1.6 gD per HveCt; fold increase in binding compared to wild type gD(306t) (HveA(200t) (human) [4]): 100 fold; stoichiometry (gD:HveC) (HveC(346t) (human) [5]): 2 gD per HveC |
| gD-1(306t) KOS (ligand) | 0.007 s⁻¹ | 2200 M⁻¹ s⁻¹ | 0.011 s⁻¹ | 9000 M⁻¹ s⁻¹ | 1200 nM | 3200 nM | gD concentration at saturation (µM (printed RM)) (HveC(346t) (human) [1]): 10 to 20; Kd (HveA(200t) (human) [7]): 300 nM; Kd (HveC(346t) (human) [11]): 1000 nM; gD concentration at saturation (HveA(200t) (human) [4]): 2 to 3 µM |
| gD(285t) (ligand) | 0.0073 s⁻¹ | 190000 M⁻¹ s⁻¹ | 0.013 s⁻¹ | 370000 M⁻¹ s⁻¹ | 35 nM | 38 nM | fold increase in affinity over gD(306t) (HveC(346t) (human) [12]): > 80 fold; ratio in the complex (HveC(346t) (human) [13]): 2 gD per HveC; ratio in the complex (HveC(143t) per gD(285t)) (HveC(143t) (human) [14]): 1; stoichiometry (gD:HveC) (HveC(143t) (human) [15]): 1 gD per HveC; stoichiometry (gD:HveC) (HveC(245t) (human)): 1 gD per HveC; stoichiometry (gD:HveC) (HveC(346t) (human) [16]): 2 gD per HveC |
| gD(306t)rid1 (ligand) | 0.0047 s⁻¹ | 27000 M⁻¹ s⁻¹ | 0.008 s⁻¹ | 39000 M⁻¹ s⁻¹ | 200 nM | 170 nM | fold increase in affinity compared to gD(306t) (HveC(346t) (human) [12]): 20 fold |
